Results on six molecules are retold here after patent US20150259419A1 (PROTHENA BIOSCIENCES, published 2015).

B1: mouse anti-human MCAM monoclonal antibody clone 1414.1.2 (antibody, V domains shown)
VH: EIQLQQTGPELVKPGASVKISCKASGYSFTDYIMLWVKQSHGKSLEWIGNINPYSGSSGYNLKFKGKATLTVDKSSSTAYMQLNSLTSEDSAVYYCARGKDFAMDYWGQGTSVTVSS
VL: DIVMSQSPSSLAVSAGEKVTMSCKSSQSLLNSSTRKNFLAWYQQKPGQSPKLLIYWASTRESGVPDRFTGSGSGTDFTLTISSVQAEDLAVYYCKQSYNRYTFGGGTKLEIK
notes: Mouse hybridoma antibody
B2: mouse anti-human MCAM monoclonal antibody clone 1749.1.3 (antibody, V domains shown)
VH: DVKLVESGGDLVKPGGSLKLSCAASGFTFSSYIMSWVRQTPEKRLEWVATISSGGSSTYYPDSVKGRFTISRDNAKNTLYLQMSSLKSEDTAMYYCTRDDDYDVKVFAYWGQGTLVTVSA
VL: B1 VL with S22N, Q27R, S33R, T34I, F38Y, R100L, Y101L, G105A, I111L
notes: Mouse hybridoma antibody
B3: mouse anti-human MCAM monoclonal antibody clone 1415.1.1 (antibody, V domains shown)
VH: QVQLQQPGAELVQPGAPVKLSCKASGYIFTSYWMNWVKQRPGRGLEWIGRIDPSDSKIHYNQKFKDKATLTVDRSSSTAYIQLGSLTSEDSAVYYCAKEGGLRRGDYAMDYWGQGTSVTVSS
VL: DIVMTQSPATLSVTPGDRVSLSCRASQSISDYLHWYQQKSHESPRLLIKYASQSISGIPSRFSGSGSGSDFTLSINSVEPEDVGVYYCQNGHNFPRTFGGGTKLEIK
notes: Mouse hybridoma antibody
B4: mouse anti-human MCAM monoclonal antibody clone 1174.1.3 (antibody, V domains shown)
VH: QIQLVQSGPELKKPGETVKISCKASGYTFTNYGMNWVKQAPGKGLKWMGWINTYTGEPTYADDFKGRFALSLETSASTAYLQINNLKNEDMATYFCARYRYNKYERAMDYWGQGTSVTVSS
VL: DIVLTQSPASLAVSLGQRATISCRASKSVSTSGYSYMYWYQQKPGQPPKLLIYLASNLESGVPARFSGSGSGTDFTLNIHPVEEEDAATYYCQHSRELPFTFGSGTKLEIK
notes: Mouse hybridoma antibody
B5: human MCAM, full length, expressed on transfected cells (receptor)
chain: VPGEAEQPAPELVEVEVGSTALLKCGLSQSQGNLSHVDWFSVHKEKRTLIFRVRQGQGQSEPGEYEQRLSLQDRGATLALTQVTPQDERIFLCQGKRPRSQEYRIQLRVYKAPEEPNIQVNPLGIPVNSKEPEEVATCVGRNGYPIPQVIWYKNGRPLKEEKNRVHIQSSQTVESSGLYTLQSILKAQLVKEDKDAQFYCELNYRLPSGNHMKESREVTVPVFYPTEKVWLEVEPVGMLKEGDRVEIRCLADGNPPPHFSISKQNPSTREAEEETTNDNGVLVLEPARKEHSGRYECQAWNLDTMISLLSEPQELLVNYVSDVRVSPAAPERQEGSSLTLTCEAESSQDLEFQWLREETDQVLERGPVLQLHDLKREAGGGYRCVASVPSIPGLNRTQLVKLAIFGPPWMAFKERKVWVKENMVLNLSCEASGHPRPTISWNVNGTASEQDQDPQRVLSTLNVLVTPELLETGVECTASNDLGKNTSILFLELVNLTTLTPDSNTTTGLSTSTASPHTRANSTSTERKLPEPESRGVVIVAVIVCILVLAVLGAVLYFLYKKGKLPCRRSGKQEITLPPSRKTELVVEVKSDKLPEEMGLLQGSSGDKRAPGDQGEKYIDLRH
notes: CHO cells transfected with the full length human MCAM gene; also called hMCAM; CD146
B6: rat anti-human MCAM monoclonal antibody clone 2107.4.10 (antibody, V domains shown)
VH: QVQLKESGPGLVQSSQTLSLTCTVSGFSLTSNGVSWVRQPPGKGLEWIAAISSGGSTYYNSAFKSRLSISRNTSKSQVLLKMNSLQTEDTGMYFCARHRPFYFDYWGQGVMVTVSS
VL: DIQVTQSPSLLSASVGDRVTLNCKGSQNIYKSLAWFRLKRGEAPKLLIYDANSLQTGIPSRFSGSGSGTDFTLTITSLQPEDVATYFCQQYYSGYTFGAGTKLELK

Residue numbers refer to the chain shown, from its start.

For the first assay, the target named is T1, full length MCAMhFc protein (extracellular domain of human MCAM fused to human IgG) (human, UniProt P43121 24-559).
T1 construct: also called hMCAM-Fc; Human MCAM-Fc protein; not shown: human IgG (Fc) portion
T1 chain: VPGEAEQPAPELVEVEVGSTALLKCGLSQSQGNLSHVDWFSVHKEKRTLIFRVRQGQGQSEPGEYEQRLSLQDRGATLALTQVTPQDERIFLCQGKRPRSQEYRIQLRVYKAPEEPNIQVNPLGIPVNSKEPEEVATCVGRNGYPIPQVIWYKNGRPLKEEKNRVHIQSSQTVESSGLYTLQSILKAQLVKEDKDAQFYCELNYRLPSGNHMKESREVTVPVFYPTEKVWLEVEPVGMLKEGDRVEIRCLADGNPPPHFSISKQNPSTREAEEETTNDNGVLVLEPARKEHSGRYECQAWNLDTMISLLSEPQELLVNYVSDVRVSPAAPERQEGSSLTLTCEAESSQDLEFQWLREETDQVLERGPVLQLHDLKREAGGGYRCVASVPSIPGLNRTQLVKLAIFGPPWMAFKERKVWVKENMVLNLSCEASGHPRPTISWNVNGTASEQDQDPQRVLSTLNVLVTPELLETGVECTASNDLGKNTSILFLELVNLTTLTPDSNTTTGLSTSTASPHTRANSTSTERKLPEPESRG
Nature of the assay: summary of Examples 2 and 3.
As for B1, the binding result is recorded as “binds”.

Turning to B2, the binding result is “binds”.

As for B3, the binding result is on record as “binds”.

As for B4, the binding result is “binds”.

The next assay concerns the target T2, recombinant laminin 511 (UniProt O15230 36-3695; P07942 22-1786; P11047 34-1609).
T2 construct: also called laminin 10 (α5β1γ1)
Nature of the assay: CHO cells transfected with human MCAM incubated with laminin, pan-laminin antibody, flow cytometry. Background: Flow cytometry measures light scatter and fluorescence of single cells or particles in a stream.
Consider B5, for which the binding result is “no binding (tested: 10 µg/ml)”.

Another assay concerns the target B5. Briefly: blocking of laminin 411 (20 ug/ml) binding to CHO cells expressing human MCAM, flow cytometry. As for the experimental part: The 87 independent mouse fusion clones and 26 independent rat fusion clones described in Example 1 above as being capable of (i) binding to human MCAM, and (ii) blocking the interaction between human MCAM and the α-4 chain of laminin were further characterized as follows. First, IC50 quantitation for the ability of the monoclonal antibody to block the binding of human MCAM to the α-4 chain of laminin was determined as follows. CHO cells expressing human MCAM were incubated with an anti-human MCAM antibody (at various concentrations) for 30 minutes at 4 degrees Celsius. […] Unbound laminin was then washed away, and the laminin bound to the surface of the cells was detected with fluorescently labeled anti-laminin antibodies. After washing, the amount of laminin bound to the surface was detected by flow cytometry, and IC50s were calculated based on the mean fluorescent intensity.
Amino acid and nucleic acid sequences of the heavy and light chains of these antibodies, and their hypervariable regions, are provided in SEQ ID NOs:29-92. […] As such, each of these specific monoclonal antibodies was very capable of binding to human MCAM and inhibiting the interaction of cell-expressed human MCAM with its α-4 laminin binding ligand.
For orientation: IC50 means the point on the concentration scale where inhibition reaches its midpoint. Read a low IC50 as greater potency. Molecule B1 displayed an IC50 of 0.431 µg/mL.

Consider B2, for which the IC50 came out at 0.545 µg/mL.

B3 gave an IC50 of 0.307 µg/mL.

In turn, B6 returned an IC50 of 0.29 µg/mL.

In turn, B4 came in with an IC50 of 0.469 µg/mL.

The target of a further assay is T3, human MCAM domain 2 (MCAMhFc domain construct) (human, UniProt P43121 139-242).
T3 construct: not shown: human Fc portion
T3 sequence: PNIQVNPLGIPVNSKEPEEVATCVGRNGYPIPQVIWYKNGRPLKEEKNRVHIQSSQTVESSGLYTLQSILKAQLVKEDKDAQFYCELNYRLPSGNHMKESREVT
Nature of the assay: ForteBio Octet Red, MCAMhFc domains on anti-human IgG Fc biosensors. The text has this: (§1) The following protocol was used: ForteBio anti-human IgG Fc biosensors were used to immobilize various MCAMhFc domains including full length MCAMhFc protein on to biosensor surface. […] After loading these samples into a black 96 well plate, the Octet Red was programmed as follows: 60 seconds for baseline #1; 180 seconds for loading various domains; 60 seconds for baseline #2; 180 seconds for association of antibody to domain; and 240 seconds for dissociation of antibody from domain.
(§2) 1. MCAMhFc final concentration@5 ug/ml [0374] […] 3. ForteBio anti-human IgG Fc Capture (AHC) biosensors for kinetics experiments, cat #18-5060 [0376] 4. Block 96 well plate from Greiner Bio-one, cat #655209 [0377] 5. ForteBio Octet Red machine [0378] 6. Fresh tissue culture medium, DMEM with 20% FCS, was used as buffer for dilution
(In general: Biolayer interferometry detects binding as a change in optical thickness at a sensor tip.)
On to B1, for which the binding result is recorded as “no binding (tested: 5 ug/ml)”.

In the case of B2, the binding result is given as “no binding (tested: 5 ug/ml)”.

As to B3, the binding result was “no binding (tested: 5 ug/ml)”.

Take B4: the binding result is “no binding (tested: 5 ug/ml)”.

The next assay has as its target T4, combination of human MCAM domains 1 and 2 (MCAMhFc domain construct) (human, UniProt P43121 19-242).
T4 construct: not shown: human Fc portion
T4 sequence: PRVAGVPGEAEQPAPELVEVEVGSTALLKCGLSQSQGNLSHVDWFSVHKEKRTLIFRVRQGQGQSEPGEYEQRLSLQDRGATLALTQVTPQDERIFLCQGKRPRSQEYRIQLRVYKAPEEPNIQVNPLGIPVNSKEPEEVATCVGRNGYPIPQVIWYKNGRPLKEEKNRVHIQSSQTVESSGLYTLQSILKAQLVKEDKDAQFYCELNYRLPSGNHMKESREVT
The assay is described as above.
Source text: as §1, §2
In the case of B1, the binding result was “no binding (tested: 5 ug/ml)”.

On to B2, for which the binding result is “no binding (tested: 5 ug/ml)”.

Take B3: the binding result was “no binding (tested: 5 ug/ml)”.

For the molecule B4, the binding result was “no binding (tested: 5 ug/ml)”.

For the next assay, the target named is T5, human MCAM domain 1 (MCAMhFc domain construct) (human, UniProt P43121 19-129).
T5 construct: also called amino acids 19-129; not shown: human Fc portion (captured on anti-human IgG Fc biosensors)
T5 sequence: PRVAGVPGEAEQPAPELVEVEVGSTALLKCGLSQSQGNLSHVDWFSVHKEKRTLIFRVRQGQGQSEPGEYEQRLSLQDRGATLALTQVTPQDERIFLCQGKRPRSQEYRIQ
The description is as above.
Source text: as §1, §2
Regarding B1, the binding result is listed as “no binding (tested: 5 ug/ml)”.

Regarding B2, the binding result is “no binding (tested: 5 ug/ml)”.

With B3, the binding result is on record as “no binding (tested: 5 ug/ml)”.

With B6, the binding result is listed as “no binding (tested: 5 ug/ml)”.

For B4, the binding result is listed as “no binding (tested: 5 ug/ml)”.

Another assay deals with T6, human MCAM domain 3 (MCAMhFc domain construct) (human, UniProt P43121 244-321).
T6 construct: also called amino acids 244-321; not shown: human Fc portion
T6 sequence: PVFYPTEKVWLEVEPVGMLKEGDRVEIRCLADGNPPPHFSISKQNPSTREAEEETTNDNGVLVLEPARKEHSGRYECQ
Nature of the assay: ForteBio Octet Red, MCAMhFc domains on anti-human IgG Fc biosensors, antibody at 5 ug/ml.
Source text: as §1, §2
On to B1, for which the binding result is recorded as “binds”.

In the case of B2, the binding result is “binds”.

For the molecule B3, the binding result is on record as “binds”.

For B4, the binding result is “binds”.
